Measured values taken from US20230220111A1 (BEIJING TUO JIE BIOPHARMACEUTICAL, published 2023).

Key:
[1] = target: monkey FXI (in monkey plasma) (monkey); test: cell-based or functional assay
[2] = target: T1, Human FXI protein (coagulation factor XI) (human, UniProt P03951 19-625); test: cell-based or functional assay
[3] = target: T2, Human FXIa protein (activated coagulation factor XI) (human, UniProt P03951 19-625); test: SPR (Biacore T200), antibody captured on Protein A chip, FXIa as analyte, 1:1 Langmuir fit
T2 construct: Bought from Enzyme Research Laboratories (HFXIa 1111a); also called factor XIa; HFXIa 1111a
Text: (§1) A certain amount of antibodies to be tested was affinity-captured using a Protein A biosensor chip (Cat. #29127556, GE), then FXI/FXIa at a series of concentration gradients flowed through the surface of the chip. The reaction signals were detected in real time using a Biacore instrument (Biacore T200, GE) to obtain association and dissociation curves. After dissociation was completed for each cycle, the biochip was washed and regenerated with a regeneration solution prepared in a human antibody capture kit or a glycine-hydrochloric acid regeneration solution (pH 1.5, Cat. #BR-1003-54, GE). The buffer used in the experiment was HBS-EP+10× buffer (Cat. #BR-1006-69, GE) diluted to 1× (pH 7.4) with double distilled water.
(§2) The data obtained from the experiment were fitted using BIAevaluation version 4.1, GE software using a (1:1) Langmuir model to obtain affinity values. The test results of part of antibodies are shown in FIG. 1A, FIG. 1B and Table 6 below.

[4] = target: T1, Human FXI protein (coagulation factor …); test: SPR (Biacore T200), antibody captured on Protein A chip, FXI as analyte, 1:1 Langmuir fit
Text: as §1, §2

Row | Binder | aPTT1.5 (concentration prolonging aPTT by 50% relative to PBS), monkey blood [1] | aPTT1.5 (concentration prolonging aPTT by 50% relative to PBS), human blood [2] | Kd [3] | koff [3] | kon [3] | Kd [4] | koff [4] | kon [4]
1 | BAY1213790 (antibody, human IgG1, kappa, V domains shown) VH: EVQLLESGGGLVQPGGSLRLSCAASGFTFSQYGMDWVRQAPGKGLEWVSGIGPSGGSTVYADSVKGRFTISRDNSKNTLYLQMNSLRAEDTAVYYCTRGGPYYYYGMDVWGQGTTVTVSS VL: DIQMTQSPSSLSASVGDRVTITCQASQDISNYLNWYQQKPGKAPKLLIYDASNLETGVPSRFSGSGSGTDFTFTISSLQPEDIATYYCQQADSFPVTFGGGTKVEIKR | 2.73 µg/mL | 2.15 µg/mL |  |  |  |  |  | 
2 | antibody 0012 (antibody, V domains shown) VH: QVQLQQSGAEVKKPGASVKVSCKVSGYTLTELSMHWVRQAPGKGLEWMGGFDPEDGETIYAQKFQGRVTMTEDTSTDTAYMELSSLRSEDTAVYYCATDPHRTWWRYFDWLYPRGMDVWGQGTTVTVSS VL: EIVMTQSPGTLSLSPGERATLSCRASQTVGKNYLAWYQQKPGQAPRLLIYGASNRATGIPDRFSGSGSGTDFTLTISRLEPEDFGTYYCQQFRSYPYTFGQGTKVEIK | > 8.33 µg/mL | 14.6 µg/mL |  |  |  |  |  | 
3 | antibody 1209 (0012-K3) (antibody, human IgG1, kappa, V domains shown) VH: QVQLQQSGAEVKKPGASVKVSCKVSGYTLTSILMHWVRQAPGKGLEWMGGFDPQDGETVYAQKFQGRVTMTEDTSTDTAYMELSSLRSEDTAVYYCATDPHRTWWRYFDWLYPRGMDVWGQGTTVTVSS VL: EIVMTQSPGTLSLSPGERATLSCRASQTVGKNYLAWYQQKPGQAPRLLIYEASVRALGIPDRFSGSGSGTDFTLTISRLEPEDFGTYYCQQFRSYPYTFGQGTKVEIKR | 4.08 µg/mL | 4.68 µg/mL |  |  |  |  |  | 
4 | antibody 1267 (Kg3g) (antibody, human IgG1, kappa, V domains shown, Heavy chain is VH + human CH1 + IgG1 Fc) VH: QVQLVQSGAEVKKPGASVKVSCKVSGYTLTSILMHWVRQAPGKGLEWMGGFDPQDGETVYAQKFQGRVTMTEDTSTDTAYMELSSLRSEDTAVYYCATDPHRTWWRYFDWLYPRGMDVWGQGTTVTVSS VL: EIVLTQSPGTLSLSPGERATLSCRASQTVGKNYLAWYQQKPGQAPRLLIYEASVRALGIPDRFSGSGSGTDFTLTISRLEPEDFAVYYCQQFRSYPYTFGQGTKVEIKR |  |  | 22.2 pM | 1.79e-05 s⁻¹ | 873000 M⁻¹ s⁻¹ |  |  | 
5 | antibody 3807 (antibody, V domains shown, Murine variable regions; also called murine antibody 3807; hybridoma clone 3807) VH: EVQLQQSGAELVRPGTSVKLSCIASGFNIKDDYMHWVKQRPEQGLEWIGWIDPENGDTEYASKFQGKATITADTSANTAYLQFSSLTSEDTAVYYCLYGNFYYFDYWGQGTTLTVSS VL: QIVLTQSPAIMSASPGEKVTMTCSASSSINYMHWYQQKPGTSPKRWIYDTSKLASGVPARFSGSGSGTSYSLTISSMEAEDAATYYCHQRSFSPLTFGAGTKLELK | 1 µg/mL | 1.33 µg/mL | 148 pM | 0.000235 s⁻¹ | 1.59e+06 M⁻¹ s⁻¹ |  |  | 
6 | antibody 3871 (antibody, V domains shown, Humanized from 3807: VH is 3807-VH1 and VL is 3807-VL3) VH: QVQLVQSGAEVKKPGSSVKVSCKASGFNIKDDYMHWVRQAPGQGLEWMGWIDPENGDTEYASKFQGRVTITADESTSTAYMELSSLRSEDTAVYYCLYGNFYYFDYWGQGTTVTVSS VL: EIVLTQSPATLSLSPGERATLSCSASSSINYMHWYQQKPGQAPKRWIYDTSKLASGVPARFSGSGSGTDFTLTISSLEPEDFAVYYCHQRSFSPLTFGQGTKLEIK | 1.12 µg/mL | 0.88 µg/mL | 570 pM | 0.000708 s⁻¹ | 1.24e+06 M⁻¹ s⁻¹ | 20 pM | 2.66e-05 s⁻¹ | 1.32e+06 M⁻¹ s⁻¹
7 | antibody 3882 (antibody, human IgG4 S228P, kappa, V domains shown) VH: QVQLVQSGAEVKKPGSSVKVSCKASGGTFSDDYMHWVRQAPGQGLEWMGWIDPENGDTEYASKFQGRVTITADESTSTAYMELSSLRSEDTAVYYCLYGNFYYFDYWGQGTTVTVSS VL: EIVLTQSPATLSLSPGERATLSCSASSSINYMHWYQQKPGQAPKRWIYDTSKLASGVPARFSGSGSGTDFTLTISSLEPEDFAVYYCHQRSFSPLTFGQGTKLEIKR | 1.14 µg/mL | 0.63 µg/mL | 364 pM | 0.000387 s⁻¹ | 1.06e+06 M⁻¹ s⁻¹ | 29.6 pM | 5.85e-05 s⁻¹ | 1.97e+06 M⁻¹ s⁻¹
8 | antibody 3875 (antibody, V domains shown, Humanized from 3807: VH is 3807-VH5 and VL is 3807-VL3) VH: QVQLVQSGAEVKKPGSSVKVSCKASGFNIKDDYMHWVRQAPGQGLEWMGWIDPENGDTEYASKFQGRVTITADTSANTAYMELSSLRSEDTAVYYCLYGNFYYFDYWGQGTTVTVSS VL: EIVLTQSPATLSLSPGERATLSCSASSSINYMHWYQQKPGQAPKRWIYDTSKLASGVPARFSGSGSGTDFTLTISSLEPEDFAVYYCHQRSFSPLTFGQGTKLEIK |  | 0.87 µg/mL | 220 pM | 0.000336 s⁻¹ | 1.53e+06 M⁻¹ s⁻¹ | 37.8 pM | 3.02e-05 s⁻¹ | 799000 M⁻¹ s⁻¹
